In patent US8114974B2, “Engineered microorganisms with enhanced fermentation activity” (Verdezyne, Inc., priority 2009, dated 2012):

Key:
[1] = test system: xylose isomerase; assay: Heterologous xylose isomerase expression in yeast (active yes/no); format: cell-based, Saccharomyces cerevisiae; conditions: xylose isomerase of the donor organism expressed in engineered yeast (S. cerevisiae)
[2] = test system: xylose isomerase; assay: In vitro xylose isomerase activity assay (sorbitol dehydrogenase/NADH coupled, A340; Km, specific activity, Ki for xylitol); format: biochemical, Saccharomyces cerevisiae
Description: About 20 μg of soluble whole cell extract was incubated in the presence of 100 mM Tris, pH 7.5, 10 mM MgCl2, 0.15 mM NADH (Sigma, St. Louis, Mo.), and about 2 U sorbitol dehydrogenase (Roche) at about 30° C. […] A Beckman DU-800 was utilized with an Enzyme Mechanism software package (Beckman Coulter, Inc.), and the change in the A340 was monitored for 2-3 minutes.
Approximately 20 μg of soluble whole cell extract from each transformed cell line, prepared using Y-PER plus reagent as described above, was incubated in a solution containing about 100 mM Tris, pH 7.5, 10 mM MgCl ? 2, 0.15 mM NADH (Sigma, St. Louis, Mo.), and 2 U Sorbitol Dehydrogenase (SDH) (Roche, Indianapolis, Ind.) at about 30° C. […] A Beckman DU-800 spectrophotometer was utilized with an Enzyme Mechanism software package (Beckman Coulter, Inc, Brea, Calif.), and the change in the A340 was monitored for 2-3 minutes.
Approximately 20 μg of soluble whole cell extract from each transformed cell line was prepared using Y-PER plus reagent as described above was incubated in a solution containing about 100 mM Tris, pH 7.5, 10 mM MgCl2, 0.15 mM NADH (Sigma, St. Louis, Mo.), and 2 U sorbitol dehydrogenase (SDH) (Roche, Indianapolis, Ind.) at about 30° C. […] A Beckman DU-800 spectrophotometer was utilized with an Enzyme Mechanism software package (Beckman Coulter, Inc, Brea, Calif.), and the change in the A340 was monitored for 2-3 minutes.
Approximately 20 μg of soluble whole cell extract from each transformed cell line was prepared using Y-PER plus reagent as described above was incubated in a solution containing about 100 mM Tris, pH 7.5, 10 mM MgCl ? .2, 0.15 mM NADH (Sigma, St. Louis, Mo.), and 2 U Sorbitol Dehydrogenase (SDH) (Roche, Indianapolis, Ind.) at about 30° C. […] A Beckman DU-800 spectrophotometer was utilized with an Enzyme Mechanism software package (Beckman Coulter, Inc, Brea, Calif.), and the change in the A340 was monitored for 2-3 minutes.
The Clostridiales enzyme was further characterized at 1974 μg to confirm the presence of activity.

[3] = chimeric variants, soluble whole cell extract, xylose 40-500 mM

Thermus thermophilus: xylose isomerase of this donor organism
Active? (yes/no) [1]: Yes

Bacteroides thetaiotaomicron: xylose isomerase of this donor organism
Active? (yes/no) [1]: Yes

Streptomyces rubiginosus: xylose isomerase of this donor organism
Active? (yes/no) [1]: No

Actinoplanes missouriensis: xylose isomerase of this donor organism
Active? (yes/no) [1]: No

B1: XI-Rp5: chimera: first 5 amino acids of Piromyces xylose isomerase fused to Ruminococcus xylose isomerase (SEQ ID NO. 56) (protein)
chain: MAKEYFSNIGKIQYQGPKSTDPLSFKYYNPEEVINGKTMREHLKFALSWWHTMGGDGTDMFGCGTTDKTWGQSDPAARAKAKVDAAFEIMDKLSIDYYCFHDRDLSPEYGSLKATNDQLDIVTDYIKEKQGDKFKCLWGTAKCFDHPRFMHGAGTSPSADVFAFSAAQIKKALESTVKLGGNGYVFWGGREGYETLLNTNMGLELDNMARLMKMAVEYGRSIGFKGDFYIEPKPKEPTKHQYDFDTATVLGFLRKYGLDKDFKMNIEANHATLAQHTFQHELRVARDNGVFGSIDANQGDVLLGWDTDQFPTNIYDTTMCMYEVIKAGGFTNGGLNFDAKARRGSFTPEDIFYSYIAGMDAFALGFRAALKLIEDGRIDKFVADRYASWNTGIGADIIAGKADFASLEKYALEKGEVTASLSSGRQEMLESIVNNVLFSL
Km [2, 3]: 66.5 mM
Specific Activity [2, 3]: 1.45 µmol/min/mg

B2: Escherichia coli: xylose isomerase of this donor organism (protein, UniProt P00944 1-440, looked up)
Xylose isomerase: MQAYFDQLDRVRYEGSKSSNPLAFRHYNPDELVLGKRMEEHLRFAACYWHTFCWNGADMFGVGAFNRPWQQPGEALALAKRKADVAFEFFHKLHVPFYCFHDVDVSPEGASLKEYINNFAQMVDVLAGKQEESGVKLLWGTANCFTNPRYGAGAATNPDPEVFSWAATQVVTAMEATHKLGGENYVLWGGREGYETLLNTDLRQEREQLGRFMQMVVEHKHKIGFQGTLLIEPKPQEPTKHQYDYDAATVYGFLKQFGLEKEIKLNIEANHATLAGHSFHHEIATAIALGLFGSVDANRGDAQLGWDTDQFPNSVEENALVMYEILKAGGFTTGGLNFDAKVRRQSTDKYDLFYGHIGAMDTMALALKIAARMIEDGELDKRIAQRYSGWNSELGQQILKGQMSLADLAKYAQEHHLSPVHQSGRQEQLENLVNHYLFDK
Active? (yes/no) [1]: No

B3: R. flavefaciens, FD-1 XI: xylose isomerase of Ruminococcus flavefaciens FD1 (ZP_06143883.1, SEQ ID NO: 110) (protein, listed as Ruminococcus flavefaciens)
chain: MEFFKNISKIPYEGKDSTNPLAFKYYNPDEVIDGKKMRDIMKFALSWWHTMGGDGTDMFGCGTADKTWGENDPAARAKAKVDAAFEIMQKLSIDYFCFHDRDLSPEYGSLKDTNAQLDIVTDYIKAKQAETGLKCLWGTAKCFDHPRFMHGAGTSPSADVFAFSAAQIKKALESTVKLGGTGYVFWGGREGYETLLNTNMGLELDNMARLMKMAVEYGRSIGFKGDFYIEPKPKEPTKHQYDFDTATVLGFLRKYGLDKDFKMNIEANHATLAQHTFQHELCVARTNGAFGSIDANQGDPLLGWDTDQFPTNIYDTTMCMYEVIKAGGFTNGGLNFDAKARRGSFTPEDIFYSYIAGMDAFALGYKAASKLIADGRIDSFISDRYASWSEGIGLDIISGKADMAALEKYALEKGEVTDSISSGRQELLESIVNNVIFNL
xylose isomerase activity (slope) of candidate enzymes (FIG. 25) ([2]; 100 μg total soluble crude extract, saturating xylose (500 mM)): highest activity of the candidates tested
specific activity relative to the native XI control activity ([2]; Michaelis Mentin plots, xylose between 40 and 500 nM as printed): greater than 2 fold
